Test results published in patent US20150368642A1, “LNA OLIGONUCLEOTIDE CARBOHYDRATE CONJUGATES” (HOFFMANN-LA ROCHE INC., priority 2013, published 2015).
Strand notation (5' to 3'): a small letter for the sugar, then the base; units joined by * are phosphorothioate-linked, units joined directly phosphodiester-linked; [ ] holds rarer units or linkages, { } end groups; capitals alone tell only the bases. l = locked nucleic acid (LNA); [5mC] = 5-methylcytosine; d = 2'-deoxy (DNA)

Columns and labels:
[1] = In vitro cleavage in liver homogenate; format: in vitro ADME, NMRI mice; details: 200 μg/g tissue, 24 hours at 37°
Description: (§1) Liver, kidney and serum (see table below) were spiked with oligonucleotide SEQ ID NO 21 to concentrations of 200 μg/g tissue. Liver and kidney samples collected from NMRI mice were homogenized in a homogenisation buffer (0.5% Igepal CA-630, 25 mM Tris pH 8.0, 100 mM NaCl, pH 8.0 (adjusted with 1 N NaOH). The homogenates were incubated for 24 hours at 37° and thereafter the homogenates were extracted with phenol-chloroform. The content of cleaved and non cleaved oligonucleotide in the extract from liver and kidney and from the serum were determined against a standard using the above HPLC method.

[2] = In vitro cleavage in serum; format: in vitro ADME; details: 200 μg/g
Description: as §1

[3] = In vitro cleavage in kidney homogenate; format: in vitro ADME, NMRI mice; details: 200 μg/g tissue, 24 hours at 37°
Description: as §1

HBV [4] = test: HBV mouse hydrodynamic tailvein injection model, HBV DNA in liver by qPCR; format: in vivo, Balb/C mouse; details: Balb/C mice, single injection 24 hours before hydrodynamic injection; SEQ ID 55 2 and 10 mg/kg, SEQ ID 56 2.7 and 13.5 mg/kg
Source text: An LNA oligomer can be assessed for antiviral effect in vivo in a mouse strain, such as BALB/c or C57B/6, where HBV replication can be established by hydrodynamic tail vein injection of a plasmid, such as pAAV/HBV1.3, expressing a partially repeated HBV pregenomic RNA (J Virol. 1995 October; 69(10):6158-69) or pAAV2/HBV1.3, a derivative thereof (WuxiAppTech, Wuxi, China). The injection of the plasmid in a high volume of saline, equal to 8-12% of the body mass of the mouse, will result in the accumulation and expression of the viral pregenomic RNA in the liver, subsequently leading to the establishment of an acute HBV infection. Treatment of the animals with an LNA oligomer can be initiated 1 or more days before the injection of the plasmid or 1 day after the injection of the plasmid. Delivery of the LNA oligomer in saline can be done by intravenous or subcutaneous injection.
An in vivo experiment was performed on SEQ ID 55 and SEQ ID 56, the latter being a GalNAC conjugate of the former (conj1a). The LNA compounds were tested for efficacy against HBV in the mouse hydrodynamic tailvein injection model using the Balb/C mouse strain. LNA compounds were be tested at equimolar doses; 2 and 10 mg/kg, single injection (SEQ ID 55) and at 2.7 and 13.5 mg/kg, single injection (SEQ ID 56). The LNA anti-HBV compounds were compared to saline and to entecavir, an inhibitor of the HBV reverse transcriptase. Entecavir was dosed p.o. daily at 0.1 mg/kg. Where applicable, the animals were treated with the LNA compound 24 hours before the hydrodynamic injection. Entecavir was given in daily doses as described starting 24 hours after the hydrodynamic injection. […] All the animals were monitored on a daily basis for body weight changes and clinical signs for the duration of the in vivo study. […] All the blood samples were collected in tubes containing heparin sodium The portion of the left lobe of each liver was used to determine the level of HBV DNA replication by qPCR, as copies per unit weight of liver in which the quantity of total HBV DNA level is subtracted by the quantity of pAAV2/HBV DNA level. […]

HBV [5] = details: WO2011/47312; cited from earlier work

Substance	% cleaved after 24 hrs liver homogenate [1]	% cleaved after 24 hours in serum [2]	% cleaved after 24 hrs kidney homogenate [3]	effect on replication of HBV / HBV DNA level in the liver (HBV [4])	effectiveness against HBV as highlighted in the art (HBV [5])
21 (TCAGCATTGGTATTCA; LNA gapmer conjugate, pattern not given here) [compound 21]	83%	0%	95%	–	–
SEQ ID NO 55: 5′-GsAsGsGscsastsasgscsasgs^mCsAsGsG-3′; HBV LNA gapmer disclosed in WO2011/47312 (lG*lA*lG*lG*dC*dA*dT*dA*dG*dC*dA*dG*l[5mC]*lA*lG*lG) [reference compound]	–	–	–	little effect on the replication of HBV in the liver	particularly effective against HBV
